The text below walks through data of publication PMC5678105.

Holding throughout (assay): EMSA
(Mobility shift assays separate free from complexed probe on a gel.)

The subject of series [1] is TALE_2c_26 (3) (Xanthomonas axonopodis scaffold (designed TALE)). As to conditions: 5mC at strand 1 nt 24 (site position 13, T = 0); EMSA: 20 mM Tris pH 8, 50 mM NaCl, 5 mM MgCl2, 5% glycerol; 0.1 pmol TALE + 0.5 pmol duplex in 10 uL; RT 30 min then ice 30 min; gel 0.5x TAE 4 C; GFP readout.
The test system of series [2] is TALE_2c_26 (23) (Xanthomonas axonopodis scaffold (designed TALE)). The following applies: 5mC at strand 1 nt 24 (site position 13, T = 0); EMSA: 20 mM Tris pH 8, 50 mM NaCl, 5 mM MgCl2, 5% glycerol; 0.1 pmol TALE + 0.5 pmol duplex in 10 uL; RT 30 min then ice 30 min; gel 0.5x TAE 4 C; GFP readout.
In series [3] the test system is TALE_9a_26 (5*) (Xanthomonas axonopodis scaffold (designed TALE)). As to conditions: 5mC at strand 1 nt 16 (site position 5, T = 0); EMSA: 20 mM Tris pH 8, 50 mM NaCl, 5 mM MgCl2, 5% glycerol; 0.1 pmol TALE + 0.5 pmol duplex in 10 uL; RT 30 min then ice 30 min; gel 0.5x TAE 4 C; GFP readout.
Series [4] relates to TALE_9a_26 R266A (Xanthomonas axonopodis scaffold (designed TALE)). The following applies: 5mC at strand 1 nt 16 (site position 5, T = 0); EMSA: 20 mM Tris pH 8, 50 mM NaCl, 5 mM MgCl2, 5% glycerol; 0.1 pmol TALE + 0.5 pmol duplex in 10 uL; RT 30 min then ice 30 min; gel 0.5x TAE 4 C; GFP readout.
Series [5] has as its system TALE_9a_26 K171A/R173A (Xanthomonas axonopodis scaffold (designed TALE)). The following applies: 5mC at strand 1 nt 16 (site position 5, T = 0); EMSA: 20 mM Tris pH 8, 50 mM NaCl, 5 mM MgCl2, 5% glycerol; 0.1 pmol TALE + 0.5 pmol duplex in 10 uL; RT 30 min then ice 30 min; gel 0.5x TAE 4 C; GFP readout.
Series [6] concerns TALE_9a_26 K262A (Xanthomonas axonopodis scaffold (designed TALE)). As to conditions: 5mC at strand 1 nt 16 (site position 5, T = 0); EMSA: 20 mM Tris pH 8, 50 mM NaCl, 5 mM MgCl2, 5% glycerol; 0.1 pmol TALE + 0.5 pmol duplex in 10 uL; RT 30 min then ice 30 min; gel 0.5x TAE 4 C; GFP readout.
For series [7], the system named is TALE_9a_26 (3) (Xanthomonas axonopodis scaffold (designed TALE)). As to conditions: 5mC at strand 1 nt 16 (site position 5, T = 0); EMSA: 20 mM Tris pH 8, 50 mM NaCl, 5 mM MgCl2, 5% glycerol; 0.1 pmol TALE + 0.5 pmol duplex in 10 uL; RT 30 min then ice 30 min; gel 0.5x TAE 4 C; GFP readout.
Series [8] has as its system TALE_9a_26 R236A (Xanthomonas axonopodis scaffold (designed TALE)). The following applies: 5mC at strand 1 nt 16 (site position 5, T = 0); EMSA: 20 mM Tris pH 8, 50 mM NaCl, 5 mM MgCl2, 5% glycerol; 0.1 pmol TALE + 0.5 pmol duplex in 10 uL; RT 30 min then ice 30 min; gel 0.5x TAE 4 C; GFP readout.

Turning to “CATCCATGAGTGAGAAACCCTGGCGGGGTGTGACATCCTCCCCCGG (double strand) [2c_26 5mC]”, the figures for the binding signal (fold C/5mC selectivity vs WT TALE) in series [1] and in series [2] were 2.5 and 1.1, respectively.

Consider “GGCCAGCCAGTCAGCCGAAGGCTCCATGCTGCTCCCCGCCGCCGGC (double strand) [9a_26 5mC]”, for which the binding signal (fold C/5mC selectivity vs WT TALE) in series [3] came out at 7.2; in series [4] it was 3; in series [5], 2.9; in series [6] it was 3; in series [7], 5.7; in series [8], 1.4.
